Biological target: type I collagen (collagen membrane or collagen gel)
Assay: modified ELISA on type I collagen membrane (6.0 mg), Kd calculated by Matsushita's method

Substance | Kd [nM]
NAT-NGF, beta-NGF mature peptide with the histidine-affinity tag (ligand) | 1500
CBD-NGF, histidine-affinity tagged fusion protein comprising the collagen binding domain and beta-NGF mature peptide | 510

Reference: patent US20140315253A1
